This is an account of results in patent US20140044674A1 (Hoffmann-La Roche, published 2014).

One experiment concerns the target T1, His-tagged human FAP ECD (human, UniProt Q12884 27-760).
T1 construct: also called hu FAP
Briefly: SPR ProteOn XPR36, 25 C; His-tagged FAP captured by anti-penta-His IgG, construct as analyte. The procedure: (§1) To determine the affinities to FAP, the target protein was captured via its H6-tag by a covalently immobilized anti-H6 antibody (FIG. 9A). Briefly, anti-penta His IgG (Qiagen #34660, mouse monoclonal antibody) was immobilized at high levels (up to ˜5.000 RU) at 30 μ/min onto separate vertical channels of a GLM chip by simultaneously activating all channels for 5 min with a freshly prepared mixture of 1-ethyl-3-(3-dimethylaminopropyl)-carboiimide (EDC) and N-hydroxysuccinimide (sNHS), subsequently injecting 15 μg/ml anti-penta His IgG in 10 mM sodium acetate buffer pH 4.5 for 180 sec. Channels were blocked using a 5-min injection of ethanolamine. H6-tagged FAP from different species (see SEQ ID NOs 81, 83 and 85) was captured from a 5 μg/ml dilution in running buffer along the vertical channels for 60 s at 30 μl/min to achieve ligand densities between ˜250 and 600 RU. In a one-shot kinetic assay set-up (OSK), antibody-IL-10 fusion constructs were injected as analytes along the horizontal channels in a five-fold dilution series ranging from 50 to 0.08 nM at 100 μl/min. Association phase was recorded for 180 s, dissociation phase for 600 s. […] Running buffer (PBST) was injected along the sixth channel to provide an “in-line” blank for referencing. Association rates (kₒₙ) and dissociation rates (koff) were calculated using a simple 1:1 Langmuir binding model (ProteOn Manager software version 2.1) by simultaneously fitting the association and dissociation sensorgrams. The equilibrium dissociation constant (KD) was calculated as the ratio koff/kₒₙ.

Another experiment concerns the target T2, His-tagged mouse FAP ECD (mouse, UniProt P97321 27-761).
T2 construct: also called mu FAP; murine FAP
Described as above. The procedure: as §1

In experiment [1] the target is T3, His-tagged cynomolgus FAP ECD (cynomolgus, UniProt Q12884 27-760 (human entry)).
T3 construct: also called cyno FAP
The experiment is described as above. The procedure:
as §1

The target of experiment [2] is T4, human IL-10R1 ECD fused to a human Fc region, biotinylated (human, biotinylated (site not stated)).
T4 construct: Captured on a neutravidin chip; also called hu IL-10R1; IL-10 receptor 1
The experiment can be described thus: SPR ProteOn XPR36, 25 C; biotinylated hu IL-10R1-Fc on neutravidin chip, construct as analyte. The procedure: To measure the interaction between the antibody-IL-10 fusion constructs and the human IL-10R1, an NLC chip was used for immobilization of the biotinylated receptor (FIG. 9B). Between 400 and 1600 RU of human IL-10R1 (see SEQ ID NO: 87) were captured on the neutravidin-derivatized chip matrix along vertical channels at a concentration of 10 μg/ml and a flow rate of […] for varying contact times. Binding to biotinylated human IL10R1 was measured at six different analyte concentrations (50, 10, 2, 0.4, 0.08, 0 nM) by injections in horizontal orientation at 100 μl/min, recording the association rate for 180 s, the dissociation rate for 600 s. Running buffer (PBST) was injected along the sixth channel to provide an “in-line” blank for referencing. Association rates (kₒₙ) and dissociation rates (koff) were calculated using a simple 1:1 Langmuir binding model (ProteOn Manager software version 2.1) by simultaneously fitting the association and dissociation sensorgrams. The equilibrium dissociation constant (KD) was calculated as the ratio koff/kₒₙ. As human IL-10R1 could not be regenerated without a loss of activity, the two subsequent steps of ligand capture and analyte injection were performed channel per channel using a freshly immobilized sensorchip surface for every interaction.

B1: 4B9 Fab-IL-10 (other)
heavy: EVQLLESGGGLVQPGGSLRLSCAASGFTFSSYAMSWVRQAPGKGLEWVSAIIGSGASTYYADSVKGRFTISRDNSKNTLYLQMNSLRAEDTAVYYCAKGWFGGFNYWGQGTLVTVSSASTKGPSVFPLAPSSKSTSGGTAALGCLVKDYFPEPVTVSWNSGALTSGVHTFPAVLQSSGLYSLSSVVTVPSSSLGTQTYICNVNHKPSNTKVDKKVEPKSCDGGGGSGGGGSGGGGSSPGQGTQSENSCTHFPGNLPNMLRDLRDAFSRVKTFFQMKDQLDNLLLKESLLEDFKGYLGCQALSEMIQFYLEEVMPQAENQDPDIKAHVNSLGENLKTLRLRLRRCHRFLPCENKSKAVEQVKNAFNKLQEKGIYKAMSEFDIFINYIEAYMTMKIRN
light: EIVLTQSPGTLSLSPGERATLSCRASQSVTSSYLAWYQQKPGQAPRLLINVGSRRATGIPDRFSGSGSGTDFTLTISRLEPEDFAVYYCQQGIMLPPTFGQGTKVEIKRTVAAPSVFIFPPSDEQLKSGTASVVCLLNNFYPREAKVQWKVDNALQSGNSQESVTEQDSKDSTYSLSSTLTLSKADYEKHKVYACEVTHQGLSSPVTKSFNRGEC
notes: also called Fab-IL-10 (clone 4B9)
Take B1: the Kd in the experiment with His-tagged human FAP ECD was 0.00105 nM; in the experiment with His-tagged mouse FAP ECD it was 0.0234 nM; in experiment [1], 0.0175 nM; in experiment [2], 0.0212 nM. In addition, the koff with His-tagged human FAP ECD was 5.72e-06 s⁻¹; in the experiment with His-tagged mouse FAP ECD, 6.27e-05 s⁻¹; in experiment [1], 7.27e-05 s⁻¹; in experiment [2] it was 4.57e-05 s⁻¹. The kon with His-tagged human FAP ECD was found to be 5.47e+06 M⁻¹ s⁻¹; with His-tagged mouse FAP ECD, 2.68e+06 M⁻¹ s⁻¹; in experiment [1] it was 4.16e+06 M⁻¹ s⁻¹; in experiment [2], 2.15e+06 M⁻¹ s⁻¹.

B2: 4B9 Fab-scIL-10-Fab (other)
heavy: EVQLLESGGGLVQPGGSLRLSCAASGFTFSSYAMSWVRQAPGKGLEWVSAIIGSGASTYYADSVKGRFTISRDNSKNTLYLQMNSLRAEDTAVYYCAKGWFGGFNYWGQGTLVTVSSASTKGPSVFPLAPSSKSTSGGTAALGCLVKDYFPEPVTVSWNSGALTSGVHTFPAVLQSSGLYSLSSVVTVPSSSLGTQTYICNVNHKPSNTKVDKKVEPKSCDGGGGSGGGGSGGGGSSPGQGTQSENSCTHFPGNLPNMLRDLRDAFSRVKTFFQMKDQLDNLLLKESLLEDFKGYLGCQALSEMIQFYLEEVMPQAENQDPDIKAHVNSLGENLKTLRLRLRRCHRFLPCENKSKAVEQVKNAFNKLQEKGIYKAMSEFDIFINYIEAYMTMKIRNGGGGSGGGGSGGGGSGGGGSSPGQGTQSENSCTHFPGNLPNMLRDLRDAFSRVKTFFQMKDQLDNLLLKESLLEDFKGYLGCQALSEMIQFYLEEVMPQAENQDPDIKAHVNSLGENLKTLRLRLRRCHRFLPCENKSKAVEQVKNAFNKLQEKGIYKAMSEFDIFINYIEAYMTMKIRNGGGGSGGGGSGGGGSEVQLLESGGGLVQPGGSLRLSCAASGFTFSSYAMSWVRQAPGKGLEWVSAIIGSGASTYYADSVKGRFTISRDNSKNTLYLQMNSLRAEDTAVYYCAKGWFGGFNYWGQGTLVTVSSASTKGPSVFPLAPSSKSTSGGTAALGCLVKDYFPEPVTVSWNSGALTSGVHTFPAVLQSSGLYSLSSVVTVPSSSLGTQTYICNVNHKPSNTKVDKKVEPKSCD
light: B1 light
notes: also called Fab-scIL-10-Fab (clone 4B9)
In the case of B2, the Kd is 0.00656 nM in the experiment with His-tagged human FAP ECD, 0.0303 nM in the experiment with His-tagged mouse FAP ECD, 0.00679 nM in experiment [1] and 0.0553 nM in experiment [2]. Also, the koff with His-tagged human FAP ECD turned out to be 3.11e-05 s⁻¹; with His-tagged mouse FAP ECD, 7.4e-05 s⁻¹; in experiment [1], 3.35e-05 s⁻¹; in experiment [2] it was 9.58e-05 s⁻¹. Further, the kon with His-tagged human FAP ECD amounted to 4.74e+06 M⁻¹ s⁻¹; with His-tagged mouse FAP ECD, 2.45e+06 M⁻¹ s⁻¹; in experiment [1], 4.93e+06 M⁻¹ s⁻¹; in experiment [2], 1.73e+06 M⁻¹ s⁻¹.
